Where two headings read alike, the source gives them in different places. Non-standard residues stand in square brackets, D forms with d. No end group written: not given here. Nle = CCCC[C@H](N)C(=O)O
B1: (Nle^8,18, Tyr^34)hPTH-(1-34) (peptide)
peptide: SVSEIQL[Nle]HNLGKHLNS[Nle]ERVEWLRKKLQDVHNY
B2: bovine PTH-(1-34) (peptide, UniProt P01268 32-65, looked up)
peptide: AVSEIQFMHNLGKHLSSMERVEWLRKKLQDVHNF
notes: range 1-34; Synthetic, Bachem; also called bPTH-(1-34); bovine (b)PTH-(1-34)
B3: bPTH-(1-84) (ligand, bovine, UniProt P01268 32-115, looked up)
chain: AVSEIQFMHNLGKHLSSMERVEWLRKKLQDVHNFVALGASIAYRDGSSQRPRKKEDNVLVESHQKSLGEADKADVDVLIKAKPQ
notes: range 1-84; From the National Hormone and Pituitary Program (NIDDK); also called bovine PTH-(1-84)
B4: hPTHrP-(37-74) (peptide, UniProt P12272 73-110, looked up)
peptide: RATSEVSPNSKPSPNTKNHPVRFGSDDEGRYLTQETNK
notes: range 73-110; Solid phase synthesis
B5: [Nle^8,18,Tyr^34]hPTH-(1-34)amide (peptide)
peptide: SVSEIQL[Nle]HNLGKHLNS[Nle]ERVEWLRKKLQDVHNY-NH2
notes: also called NNT-hPTH-(1-34); [Nle^8,18, Tyr^34]hPTH-(1-34)NH2
B6: rat PTH-(1-34) (peptide, UniProt P04089 32-65, looked up)
peptide: AVSEIQLMHNLGKHLASVERMQWLRKKLQDVHNF
notes: range 1-34; Synthetic, Bachem; also called rPTH-(1-34); rat (r)PTH-(1-34)
B7: PTHrP-(49-74) (peptide, UniProt P12272 85-110, looked up)
peptide: SPNTKNHPVRFGSDDEGRYLTQETNK
notes: range 49-74; Solid phase synthesis
B8: Chicken PTH-(1-34)amide (peptide, UniProt P15743 32-65, looked up)
peptide: SVSEMQLMHNLGEHRHTVERQDWLQMKLQDVHSA-NH2
notes: range 1-34; Solid phase synthesis; also called cPTH-(1-34)NH2
B9: (Cys^5,Trp^11,Gly^13)PTHrP-(5-18) (peptide)
peptide: CQLLHDWGGSIQDL
notes: also called P1-peptide; P1 peptide

Key:
[1] = molecular target: T1, human PTH/PTHrP receptor (PTH1 receptor) (human, UniProt Q03431 27-593); test: cell-based or functional assay
T1 sequence (looked up): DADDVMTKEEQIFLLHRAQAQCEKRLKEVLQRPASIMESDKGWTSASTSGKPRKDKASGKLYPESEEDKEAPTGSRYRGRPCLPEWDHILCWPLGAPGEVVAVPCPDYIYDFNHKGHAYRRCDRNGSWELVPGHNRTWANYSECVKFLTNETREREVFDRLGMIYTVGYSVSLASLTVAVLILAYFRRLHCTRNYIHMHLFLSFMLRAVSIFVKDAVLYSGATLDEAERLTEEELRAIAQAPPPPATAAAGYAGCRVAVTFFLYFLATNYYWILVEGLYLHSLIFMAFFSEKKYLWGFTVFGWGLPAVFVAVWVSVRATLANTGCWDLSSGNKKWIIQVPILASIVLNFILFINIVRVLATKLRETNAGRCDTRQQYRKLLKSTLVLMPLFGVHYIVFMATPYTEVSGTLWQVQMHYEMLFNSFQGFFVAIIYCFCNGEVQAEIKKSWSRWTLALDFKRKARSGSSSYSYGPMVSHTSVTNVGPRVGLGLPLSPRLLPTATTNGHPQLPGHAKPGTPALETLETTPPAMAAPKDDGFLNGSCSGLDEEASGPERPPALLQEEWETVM

[2] = molecular target: T1, human PTH/PTHrP receptor (PTH1 receptor); test: competition of 125I-(Tyr36)hPTHrP-(1-36)NH2 binding, SaOS-2 membranes, 30 C, 60 min
[3] = molecular target: T1, human PTH/PTHrP receptor (PTH1 receptor); test: competition of 125I-(Tyr36)hPTHrP-(1-36)NH2 binding, human renal cortical membranes, 30 C, 30 min
[4] = molecular target: T1, human PTH/PTHrP receptor (PTH1 receptor); test: cell-based or functional assay; remark: listed apart in the source
[5] = molecular target: T1, human PTH/PTHrP receptor (PTH1 receptor); test: cell-based or functional assay; remark: listed apart in the source
[6] = molecular target: T1, human PTH/PTHrP receptor (PTH1 receptor); test: competition of 125I-(Tyr36)hPTHrP-(1-36)NH2 binding, intact SaOS-2 cells, 15 C, 150 min
Protocol: (§3) Binding studies were conducted at 15° C. in the presence of chymostatin (100 μg/ml) and bacitracin (200 μg/ml). […] The incubation time of 150 min was therefore used for competitive binding studies.

[7] = molecular target: T1, human PTH/PTHrP receptor (PTH1 receptor); test: competition of 125I-(Tyr36)hPTHrP-(1-36)NH2 binding, human renal cortical membranes, 30 C, 30 min
[8] = molecular target: T1, human PTH/PTHrP receptor (PTH1 receptor); test: as above; remark: listed apart in the source
[9] = molecular target: T2, canine renal PTH/PTHrP receptor (canine, UniProt Q9TU31 29-595); test: cell-based or functional assay
T2 sequence (looked up): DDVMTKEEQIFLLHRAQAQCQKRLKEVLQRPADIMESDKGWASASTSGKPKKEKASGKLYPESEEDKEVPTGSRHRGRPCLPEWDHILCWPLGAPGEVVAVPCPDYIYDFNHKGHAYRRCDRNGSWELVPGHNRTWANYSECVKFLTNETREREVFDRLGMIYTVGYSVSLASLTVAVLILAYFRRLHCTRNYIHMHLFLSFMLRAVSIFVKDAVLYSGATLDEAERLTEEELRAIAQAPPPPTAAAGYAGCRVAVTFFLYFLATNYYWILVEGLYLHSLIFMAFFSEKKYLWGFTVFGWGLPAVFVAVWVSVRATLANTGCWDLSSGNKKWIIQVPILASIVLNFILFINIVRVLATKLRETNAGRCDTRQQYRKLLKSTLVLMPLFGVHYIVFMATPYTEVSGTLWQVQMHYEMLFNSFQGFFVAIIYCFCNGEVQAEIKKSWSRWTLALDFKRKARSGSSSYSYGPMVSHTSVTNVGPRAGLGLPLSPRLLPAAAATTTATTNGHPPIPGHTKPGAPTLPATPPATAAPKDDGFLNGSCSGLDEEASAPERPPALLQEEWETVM

[10] = molecular target: T2, canine renal PTH/PTHrP receptor; test: competition of 125I-[Tyr36]PTHrP-(1-36)amide binding, canine renal cortical membranes, 20 C; Ki from IC50
Protocol: (§4) Dissociation constants (Kd) were determined by Scatchard analysis of the data obtained from competitive binding experiments using radioligand and increasing concentrations of unlabeled ligand. […] Statistical differences were assessed by paired Student's t test. […] Computer fits of a one- or two-binding site model were compared, indicating the statistically preferred model. Significance was determined using a partial F-test.
(§5) The Kd values were determined by Scatchard analysis, and the Kᵢ values were derived from the IC₅₀ values.

[11] = molecular target: T2, canine renal PTH/PTHrP receptor; test: competition of 125I-[Nle8,18,Tyr34]hPTH-(1-34)amide binding, canine renal cortical membranes, 20 C; Ki from IC50
Protocol: as §4, §5

[12] = molecular target: T1, human PTH/PTHrP receptor (PTH1 receptor); test: competition binding, human RCM and SaOS-2 membranes
Protocol: (§6) Human RCM were added to a final concentration of 90 μg/ml. […] The incubation time of 30 min was used for subsequent equilibrium binding competition studies.
(§7) The binding assay for SaOS-2 membranes was conducted as for human RCM.
IC₅₀ values for competitive binding experiments and EC₅₀ values for adenylate cyclase dose response curves were determined from the concentration of peptide yielding 50% of the maximal response. Statistical differences were assessed by paired and unpaired two-tailed Student's t test.

[13] = molecular target: T1, human PTH/PTHrP receptor (PTH1 receptor); test: competition of 125I-(Tyr36)hPTHrP-(1-36)NH2 binding, human RCM, SaOS-2 membranes, intact SaOS-2 cells
Protocol: as §6, §7, §3

[14] = molecular target: T2, canine renal PTH/PTHrP receptor; test: competition of 125I-[Nle8,18,Tyr34]hPTH-(1-34)amide binding, canine renal cortical membranes, 20 C
Protocol: (§1) Binding assays were conducted in siliconized 12×75 mm borosilicate glass test tubes at 20° C. in a final volume of 0.2 ml. […] Binding was initiated by adding 50 μg membrane. At the end of the incubation periods described, 50 μl triplicate aliquots were layered onto 300 μl of iced binding buffer containing 1.0% BSA in 500 μl polypropylene tubes. The tubes were centrifuged at approximately 16,000×g for three min at 4° C. in a microcentrifuge. The supernatant was aspirated and the tip of the tube containing the membrane-associated radioligand was cut off. Radioactivity in both the pellet and supernatant was measured.
(§2) Dissociation constants (Kd) were determined by Scatchard analysis of the data obtained from competitive binding experiments using radioligand and increasing concentrations of unlabeled ligand. […] Statistical differences were assessed by paired Student's t test. […] Significance was determined using a partial F-test.

[15] = molecular target: T2, canine renal PTH/PTHrP receptor; test: homologous competition of 125I-[Nle8,18,Tyr34]hPTH-(1-34)amide binding, canine renal cortical membranes, 20 C
Protocol: as §1, §2

[16] = molecular target: T2, canine renal PTH/PTHrP receptor; test: competition of 125I-[Tyr36]PTHrP-(1-36)amide binding, canine renal cortical membranes, 20 C; printed as binding dissociation constant, heterologous competitor (Ki from IC50 by paragraph 214)
Protocol: as §1, §2

[17] = molecular target: T1, human PTH/PTHrP receptor (PTH1 receptor); test: cell-based or functional assay; remark: listed apart in the source
[18] = molecular target: T2, canine renal PTH/PTHrP receptor; test: competition of 125I-[Tyr36]PTHrP-(1-36)amide binding, canine renal cortical membranes, 20 C
Protocol: as §1, §2

Molecule	IC50 [2]	Adenylate cyclase (EC50), SaOS membranes [4]	Adenylate cyclase (EC50), kidney membranes (human RCM) [4]	Adenylate cyclase (EC50), SaOS cells (intact, 15 C, 60 min) [5]	Adenylate cyclase (EC50), kidney membranes (human RCM) [5]	IC50 [6]	IC50 [7]	IC50 [8]	also measured
(Tyr^36) chicken (c) PTHrP-(1-36)amide (from UniProt P17251 38-73) (peptide)	1.1 nM								Adenylate cyclase (EC50), SaOS cells (intact, 15 C, 60 min) [1]: 0.8 nM; Adenylate cyclase (EC50), SaOS membranes [1]: 0.87 nM; Adenylate cyclase (EC50), kidney membranes (human RCM) [1]: 0.49 nM; IC50 [3]: 0.47 nM
B1	2 nM	1.9 nM	1.1 nM	2.3 nM	1.1 nM	2.8 nM	3.6 nM	3.6 nM	
B2		0.5 nM		1.2 nM					adenylate cyclase potency against PTHrP-(1-36), standard assay (30 min, 30 C) [9]: 6 fold; adenylate cyclase stimulation against PTHrP-(1-36), binding assay conditions (20 C, 20 min, bacitracin) [9]: 15 fold; Ki [10]: 10.5 nM; Ki [11]: 6.1 nM
B3	8 nM	2.4 nM	0.59 nM	7.7 nM	0.59 nM	17.5 nM	5.1 nM	5.1 nM	fold lower relative affinity than the amino-terminal analogs [12]: ~10 fold
B4									binding result [13]: no binding
B5									fold more potent than PTHrP-(1-36) in inhibiting binding [14]: < 2 fold; Ki [15]: 7.5 nM; Ki [16]: 8.5 nM
B6		0.09 nM	0.05 nM	0.9 nM	0.05 nM	0.9 nM			adenylate cyclase potency against hPTHrP-(1-36), human RCM and SaOS-2 membranes [17]: 10 fold
B7									binding result [18]: no binding
B8	20 nM	16.3 nM	5.4 nM	3.9 nM	5.4 nM		21.5 nM	21.5 nM	
B9									binding result [18]: no binding

Reference: US20060025342A1 (OSTEOTROPHIN, published 2006)
